The text below walks through data of patent US20230002480A1.

As a reminder, the IC50 is the concentration that gives 50% inhibition. Usually IC80 stands for the concentration at which the effect reaches the 80% level. High values mean weaker potency, low ones greater potency.

What all share (test): cell-based or functional assay
Experiment [1] has as its target HIV-1 Env of pseudovirus T251-18 (clade CRF02_AG) (HIV-1).
The target in experiment [2] is HIV-1 Env of pseudovirus X1254_c3 (clade G) (HIV-1).
Experiment [3] concerns the target HIV-1 Env of pseudovirus BJOX010000.06.2 (clade CRF01_AE (T/F)) (HIV-1).
The target of experiment [4] is HIV-1 Env of pseudovirus CNE5 (clade CRF01_AE) (HIV-1).
Experiment [5] has as its target HIV-1 Env of pseudovirus R1166.c01 (clade CRF01_AE) (HIV-1).
For experiment [6], the target named is HIV-1 Env pseudovirus A07412M1.vrc12 (HIV-1).
Experiment [7] deals with HIV-1 Env pseudovirus BJOX009000.02.4 (HIV-1).
The target of experiment [8] is HIV-1 Env pseudovirus 235-47 (HIV-1).
In experiment [9] the target is HIV-1 Env pseudovirus T255-34 (HIV-1).
Experiment [10] concerns the target HIV-1 Env pseudovirus 3103.v3.c10 (HIV-1).
In experiment [11] the target is HIV-1 Env pseudovirus BJOX015000.11.5 (HIV-1).
The target of experiment [12] is HIV-1 Env pseudovirus BJOX025000.01.1 (HIV-1).
Experiment [13] addresses HIV-1 Env pseudovirus 6952.v1.c20 (HIV-1).
The target of experiment [14] is HIV-1 Env pseudovirus 3016.v5.c45 (HIV-1).
Experiment [15] deals with HIV-1 Env pseudovirus 89-F1_2_25 (HIV-1).
For experiment [16], the target named is HIV-1 Env pseudovirus P1981_C5_3 (HIV-1).
Experiment [17] deals with HIV-1 Env pseudovirus 928-28 (HIV-1).
The target of experiment [18] is HIV-1 Env pseudovirus C3347.c11 (HIV-1).

As to 10-1074 (antibody), the IC50, titer in TZM.bl cells in [1] is 1.08 µg/mL; in experiment [2], 0.089 µg/mL; in experiment [3] it was greater than 50 µg/mL; in experiment [4] it was greater than 50 µg/mL; in experiment [5], greater than 50 µg/mL. Moreover, the IC80, titer in TZM.bl cells is 7.39 µg/mL in experiment [1]; 0.297 µg/mL in [2]; greater than 50 µg/mL in [3]; greater than 50 µg/mL in experiment [4]; greater than 50 µg/mL in experiment [5].

For the substance 10E8 (antibody), the IC50, titer in TZM.bl cells was 2.36 µg/mL in experiment [1]; 4.75 µg/mL in experiment [2]; 0.341 µg/mL in [3]; 1.41 µg/mL in experiment [4]; 0.274 µg/mL in experiment [5]. Further, the IC80, titer in TZM.bl cells is greater than 10 µg/mL in experiment [1]; greater than 10 µg/mL in experiment [2]; 5.29 µg/mL in [3]; 9.64 µg/mL in experiment [4]; 2.61 µg/mL in [5].

Take N49P19 (antibody): the IC50 in experiment [6] is 3.89 µg/mL; in experiment [7] it was 3.66 µg/mL; in [8], 0.44 µg/mL; in [9], 0.948 µg/mL; in experiment [10], greater than 50 µg/mL; in experiment [11], 0.756 µg/mL. In addition, the IC50 was greater than 50 µg/mL in experiment [12]; greater than 50 µg/mL in experiment [13]; greater than 50 µg/mL in [14]; greater than 50 µg/mL in experiment [15]; 20.2 µg/mL in experiment [16]; 2.73 µg/mL in [17]. In experiment [18], this substance yielded a 50% inhibitory concentration (IC50) of 3.94 µg/mL. Further, the IC80 in experiment [6] is 48.8 µg/mL; in [7], 25.6 µg/mL; in [8], 3.23 µg/mL; in experiment [9] it was 6.22 µg/mL; in [10], greater than 50 µg/mL; in experiment [11] it was 3.17 µg/mL. The IC80 was greater than 50 µg/mL in [12]; greater than 50 µg/mL in [13]; greater than 50 µg/mL in [14]; greater than 50 µg/mL in experiment [15]; greater than 50 µg/mL in experiment [16]; 9.63 µg/mL in experiment [17]. For the same substance, the IC80 in experiment [18] was determined as 25.7 µg/mL. For the same substance, the MPI was 80 in experiment [6]; 87 in [7]; 89 in experiment [8]; 97 in experiment [9]; 0 in [10]; 99 in [11]. The MPI in [12] came out at 24; in [13], 0; in experiment [14], 9; in experiment [15] it was 7; in experiment [16], 68; in experiment [17] it was 97. Besides, the MPI in experiment [18] was 87.

Consider PG9 (antibody), for which the IC50, titer in TZM.bl cells in [1] is greater than 50 µg/mL; in experiment [2], 0.065 µg/mL; in [3], 0.154 µg/mL; in [4], 0.018 µg/mL; in experiment [5], 0.736 µg/mL. Besides, the IC80, titer in TZM.bl cells is greater than 50 µg/mL in experiment [1]; 0.304 µg/mL in experiment [2]; 0.74 µg/mL in experiment [3]; 0.051 µg/mL in experiment [4]; 2.88 µg/mL in experiment [5].

On to PG16 (antibody), for which the IC50, titer in TZM.bl cells was 1.72 µg/mL in experiment [1]; 0.023 µg/mL in [2]; 1.2 µg/mL in experiment [3]; 0.008 µg/mL in experiment [4]; 0.28 µg/mL in experiment [5]. Moreover, the IC80, titer in TZM.bl cells in [1] is 44.7 µg/mL; in experiment [2], 0.218 µg/mL; in experiment [3], greater than 50 µg/mL; in experiment [4] it was 0.033 µg/mL; in experiment [5] it was 4.38 µg/mL.
